This is an account of results in patent publication US8003609B2, “Method for ameliorating pain by modification of NMDA receptors through inhibition of Src” (The Hospital for Sick Children, priority 2004, dated 2011).

One assay has as its target T1, ND2.3-GST (Homo sapiens, UniProt P03891).
T1 construct: amino acids 1-188 (ND2.3-GST); made in house; host or cells: bacteria
Description: dot blot of biotinylated Src peptides on ND2.3-GST. The conditions noted are these: biotinylated peptide. The assay is classed as binding. Here is the method:
Src, Fyn, and ND2 recombinant proteins were prepared. The cDNAs encoding the SH3 and SH2 domains of mouse n-Src and Fyn were PCR subcloned, ligated in frame into pGEX4T-1 (Amersham Pharmacia Biotech, Baie d'Urfé, Québec), and sequenced. These plasmids, as well as plasmids encoding the unique domains of Src and Fyn in pGEX2T'6, were transformed into BL21 bacteria, and GST fusion proteins were purified by glutathione affinity chromatography. To create the ND2.1, ND2.2, and ND2.3 GST fusion proteins, cDNAs encoding amino acids 239-321 (ND2.1-GST; SEQ ID NO:7), amino acids 189-238 (ND2.2-GST; SEQ ID NO:11), and amino acids 1-188 (ND2.3-GST; SEQ ID NO:13) of human ND2 were PCR subcloned and ligated into pGEX4T-1 (the nucleotide sequence encoding ND2 is SEQ ID NO:8 and the amino acid sequence is SEQ ID NO:9; the nucleotide sequences encoding ND2.1; ND2.2 and ND2.3 are SEQ ID NOS:6, 10 and 12, respectively). Using PCR-based single nucleotide mutagenesis, all cDNAs encoding ND2 fusion proteins were corrected for differences between mitochondrial and nuclear codons to prevent premature translation termination and protein truncation. […]
Src40-58 and scrambled Src peptides were biotinylated by incubating with Sulfo-NHS-Biotin (Pierce Chemical Co., Rockford, Ill.) for 30 minutes at room temperature (SEQ ID NO:4, Src protein). […] Bound probe was then detected on film using an ECL kit.

In assay [1] the target is T2, interaction between Src and ND2 (Rattus norvegicus, UniProt P11662).
T2 construct: from tissue; host or cells: rat brain post-synaptic density fraction
T2 sequence (P11662 1-346): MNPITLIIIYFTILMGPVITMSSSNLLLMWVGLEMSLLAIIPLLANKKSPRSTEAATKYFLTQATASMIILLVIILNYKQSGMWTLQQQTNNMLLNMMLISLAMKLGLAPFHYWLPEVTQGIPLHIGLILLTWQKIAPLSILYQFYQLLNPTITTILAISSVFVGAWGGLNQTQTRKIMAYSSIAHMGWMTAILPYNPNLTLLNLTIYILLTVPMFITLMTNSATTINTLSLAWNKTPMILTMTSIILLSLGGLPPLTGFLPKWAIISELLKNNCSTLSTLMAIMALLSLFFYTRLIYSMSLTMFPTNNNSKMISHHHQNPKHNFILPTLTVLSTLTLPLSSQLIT
In words: co-immunoprecipitation of ND2 by anti-Src from PSD proteins. As to conditions: PSD proteins incubated with peptide. The format is binding. Here is the method: Detailed protocols for in vitro binding assays, pull down assays, immunoblotting, and co-immunoprecipitation techniques can be found in Pelkey et al. (Neuron 34:127-138 2002).
Post-synaptic density proteins (Kennedy et al. Proceedings of the National Academy of Science USA 80:7357-7361 1983) were prepared from rat brain as described in detail (Pelkey et al. Neuron 34:127-138 2002). Cellular fractionation of rat brain tissue into nuclear, heavy mitochondrial, light mitochondrial, microsomal, and cytosolic fractions was performed by differential centrifugation of tissue homogenate in 0.25 M sucrose/10 mM HEPES-NaOH, 1 mM EDTA, pH 7.4 with 2 μg each of aprotinin, pepstatin A, and leupeptin (Sigma, St. Louis, Mo.) at 4° C. Nuclei were pelleted by centrifugation at 1 000 g for 10 minutes, the supernatant was removed and spun at 3 000 g for 10 minutes to obtain a heavy mitochondrial pellet. The supernatant was removed and spun at 16 000 g for 15 minutes to obtain a light mitochondrial pellet. The supernatant was removed and spun at 100 000 g for 1 hour to obtain a microsomal pellet and the cytosolic fraction. All pellets were then resuspended in RIPA buffer (50 mM Tris pH 7.6, 150 mM NaCl, 1 mM EDTA, 1% NP-40, 2.5 mg/ml NaDOC, 1 mM Na3VO4 1 mM PMSF, and 2 μg/ml each of protease inhibitors). The light mitochondrial fraction was used in subsequent experiments. […]

T1 sequence (P03891 1-188): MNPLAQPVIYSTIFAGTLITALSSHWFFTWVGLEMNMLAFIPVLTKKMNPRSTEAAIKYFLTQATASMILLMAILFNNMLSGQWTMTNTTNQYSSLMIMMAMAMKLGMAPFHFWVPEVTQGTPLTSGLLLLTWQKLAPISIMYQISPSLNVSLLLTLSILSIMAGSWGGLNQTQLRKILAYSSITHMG

For the substance “Src40-58: peptide comprising amino acid residues 40-58 of SEQ ID NO:4 (Src) (PASADGHRGPSAAFAPAAA; listed as Homo sapiens)”, in the assay with ND2.3-GST, the “binding to ND2.3-GST” value is “Neither Src40-58 nor scrambled Src40-58 bound”. Besides, in assay [1], the “co-immunoprecipitation of ND2 by anti-Src” value is given as “prevented” and the “immunoprecipitation of Src from PSDs” value was “did not affect”.
